Experimental data published in the supplement of paper PMC9112550, “Optimization of the antimicrobial peptide Bac7 by deep mutational scanning” (BMC Biology, 2022).

System: Escherichia coli TOP10
Experiment: shrunken log2 fold change of peptide-encoding DNA abundance (4.5 h post-induction vs induction); higher = less antimicrobial activity (less host growth inhibition)
Conditions: time post-induction: 4.5 h; library: site-saturation at positions 5, 18, 19, 20
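Also: peptides expressed intracellularly from a pBAD plasmid library in pooled LB shake-flask culture, induced with 0.3% L-arabinose, DNA abundance read by NGS, three biological replicates, DESeq2 with apeglm shrinkage.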

Sequence | shrunken log2 fold change
RRIRNRPPRLPRPRPRPQWRPRP | 0.179
RRIRNRPPRLPRPRPRPQYMPRP | -1.16
RRIRNRPPRLPRPRPRPRAKPRP | 0.0711
RRIRNRPPRLPRPRPRPRANPRP | 0.0572
RRIRNRPPRLPRPRPRPRASPRP | 0.211
RRIRNRPPRLPRPRPRPRCKPRP | 0.0547
RRIRNRPPRLPRPRPRPRDSPRP | 0.0829
RRIRNRPPRLPRPRPRPRDWPRP | 0.0384
RRIRNRPPRLPRPRPRPREKPRP | 0.377
RRIRNRPPRLPRPRPRPRFSPRP | 0.0393
RRIRNRPPRLPRPRPRPRGYPRP | -0.846
RRIRNRPPRLPRPRPRPRHCPRP | 0.00979
RRIRNRPPRLPRPRPRPRHDPRP | 0.0353
RRIRNRPPRLPRPRPRPRHNPRP | -0.403
RRIRNRPPRLPRPRPRPRKFPRP | -0.101
RRIRNRPPRLPRPRPRPRKWPRP | 0.416
RRIRNRPPRLPRPRPRPRLDPRP | 0.0403
RRIRNRPPRLPRPRPRPRLKPRP | -0.00493
RRIRNRPPRLPRPRPRPRPLPRP | 0.402
RRIRNRPPRLPRPRPRPRPMPRP | 0.522
RRIRNRPPRLPRPRPRPRQDPRP | 0.0815
RRIRNRPPRLPRPRPRPRTFPRP | -0.078
RRIRNRPPRLPRPRPRPRVKPRP | 0.139
RRIRNRPPRLPRPRPRPRWKPRP | -0.109
RRIRNRPPRLPRPRPRPRWRPRP | 0.623

Sequence | shrunken log2 fold change
RRIRNRPPRLPRPRPRPRYSPRP | -0.309
RRIRNRPPRLPRPRPRPRYVPRP | -0.265
RRIRNRPPRLPRPRPRPSAEPRP | 0.113
RRIRNRPPRLPRPRPRPSCPPRP | -0.4
RRIRNRPPRLPRPRPRPSDEPRP | -0.189
RRIRNRPPRLPRPRPRPSDKPRP | -0.363
RRIRNRPPRLPRPRPRPSEIPRP | -0.0685
RRIRNRPPRLPRPRPRPSEKPRP | -0.0315
RRIRNRPPRLPRPRPRPSEYPRP | -0.386
RRIRNRPPRLPRPRPRPSFEPRP | -0.0494
RRIRNRPPRLPRPRPRPSGWPRP | -0.137
RRIRNRPPRLPRPRPRPSIFPRP | -0.662
RRIRNRPPRLPRPRPRPSIHPRP | -0.185
RRIRNRPPRLPRPRPRPSKAPRP | -0.0014
RRIRNRPPRLPRPRPRPSKMPRP | -0.22
RRIRNRPPRLPRPRPRPSLKPRP | -0.47
RRIRNRPPRLPRPRPRPSNRPRP | -0.138
RRIRNRPPRLPRPRPRPSPAPRP | 0.0876
RRIRNRPPRLPRPRPRPSPTPRP | 0.156
RRIRNRPPRLPRPRPRPSQAPRP | 0.0297
RRIRNRPPRLPRPRPRPSQLPRP | 0.00155
RRIRNRPPRLPRPRPRPSRWPRP | 0.417
RRIRNRPPRLPRPRPRPSSCPRP | -0.063
RRIRNRPPRLPRPRPRPSSYPRP | -0.388
RRIRNRPPRLPRPRPRPSTVPRP | -0.103

Sequence | shrunken log2 fold change
RRIRNRPPRLPRPRPRPSVGPRP | -0.0175
RRIRNRPPRLPRPRPRPSVPPRP | -0.344
RRIRNRPPRLPRPRPRPSYPPRP | 0.0469
RRIRNRPPRLPRPRPRPTAAPRP | 0.543
RRIRNRPPRLPRPRPRPTACPRP | 0.0275
RRIRNRPPRLPRPRPRPTAKPRP | -0.136
RRIRNRPPRLPRPRPRPTDFPRP | -0.164
RRIRNRPPRLPRPRPRPTDRPRP | 0.0372
RRIRNRPPRLPRPRPRPTDSPRP | -0.21
RRIRNRPPRLPRPRPRPTEHPRP | 0.141
RRIRNRPPRLPRPRPRPTELPRP | -0.0232
RRIRNRPPRLPRPRPRPTFKPRP | -0.175
RRIRNRPPRLPRPRPRPTFRPRP | -0.22
RRIRNRPPRLPRPRPRPTHDPRP | -0.219
RRIRNRPPRLPRPRPRPTHFPRP | -0.659
RRIRNRPPRLPRPRPRPTKHPRP | -0.0431
RRIRNRPPRLPRPRPRPTLHPRP | -0.0665
RRIRNRPPRLPRPRPRPTLQPRP | 0.0909
RRIRNRPPRLPRPRPRPTNYPRP | -0.73
RRIRNRPPRLPRPRPRPTPMPRP | 0.0289
RRIRNRPPRLPRPRPRPTPPPRP | 0.49
RRIRNRPPRLPRPRPRPTRKPRP | 0.623
RRIRNRPPRLPRPRPRPTSGPRP | 0.211
RRIRNRPPRLPRPRPRPTSIPRP | -0.531
RRIRNRPPRLPRPRPRPTSKPRP | -0.0758

Sequence | shrunken log2 fold change
RRIRNRPPRLPRPRPRPTVSPRP | -0.268
RRIRNRPPRLPRPRPRPTWFPRP | 0.415
RRIRNRPPRLPRPRPRPTYEPRP | -0.172
RRIRNRPPRLPRPRPRPTYSPRP | -0.226
RRIRNRPPRLPRPRPRPTYWPRP | -0.101
RRIRNRPPRLPRPRPRPVAVPRP | -0.0786
RRIRNRPPRLPRPRPRPVCLPRP | -0.453
RRIRNRPPRLPRPRPRPVDFPRP | -0.262
RRIRNRPPRLPRPRPRPVEQPRP | 0.0207
RRIRNRPPRLPRPRPRPVERPRP | 0.265
RRIRNRPPRLPRPRPRPVGVPRP | -0.0443
RRIRNRPPRLPRPRPRPVHFPRP | 0.0937
RRIRNRPPRLPRPRPRPVIGPRP | -0.00814
RRIRNRPPRLPRPRPRPVKSPRP | 0.00699
RRIRNRPPRLPRPRPRPVKTPRP | -0.0264
RRIRNRPPRLPRPRPRPVLDPRP | -0.299
RRIRNRPPRLPRPRPRPVLFPRP | -0.326
RRIRNRPPRLPRPRPRPVMTPRP | 0.0556
RRIRNRPPRLPRPRPRPVMVPRP | -0.0209
RRIRNRPPRLPRPRPRPVMYPRP | -0.128
RRIRNRPPRLPRPRPRPVQDPRP | -0.302
RRIRNRPPRLPRPRPRPVRMPRP | -0.132
RRIRNRPPRLPRPRPRPVRQPRP | 0.0327
RRIRNRPPRLPRPRPRPVSTPRP | -0.272
RRIRNRPPRLPRPRPRPVVNPRP | -0.244

Sequence | shrunken log2 fold change
RRIRNRPPRLPRPRPRPVYHPRP | -0.0311
RRIRNRPPRLPRPRPRPVYSPRP | -0.252
RRIRNRPPRLPRPRPRPVYTPRP | -0.361
RRIRNRPPRLPRPRPRPWDEPRP | 0.0165
RRIRNRPPRLPRPRPRPWDFPRP | -0.00226
RRIRNRPPRLPRPRPRPWESPRP | 0.291
RRIRNRPPRLPRPRPRPWGWPRP | 0.242
RRIRNRPPRLPRPRPRPWHKPRP | -0.0524
RRIRNRPPRLPRPRPRPWIDPRP | -0.0152
RRIRNRPPRLPRPRPRPWIPPRP | -0.536
RRIRNRPPRLPRPRPRPWIVPRP | 0.0724
RRIRNRPPRLPRPRPRPWMGPRP | -0.558
RRIRNRPPRLPRPRPRPWMYPRP | 0.0204
RRIRNRPPRLPRPRPRPWNAPRP | -0.255
RRIRNRPPRLPRPRPRPWPAPRP | 0.0494
RRIRNRPPRLPRPRPRPWRIPRP | 0.0411
RRIRNRPPRLPRPRPRPWSAPRP | -0.304
RRIRNRPPRLPRPRPRPWSDPRP | -0.0436
RRIRNRPPRLPRPRPRPWVAPRP | -0.0268
RRIRNRPPRLPRPRPRPWYNPRP | -0.00192
RRIRNRPPRLPRPRPRPYANPRP | 0.0782
RRIRNRPPRLPRPRPRPYCHPRP | -0.72
RRIRNRPPRLPRPRPRPYCLPRP | -0.228
RRIRNRPPRLPRPRPRPYCPPRP | -0.187
RRIRNRPPRLPRPRPRPYEAPRP | -0.143

Sequence | shrunken log2 fold change
RRIRNRPPRLPRPRPRPYEPPRP | -0.0287
RRIRNRPPRLPRPRPRPYGWPRP | -0.012
RRIRNRPPRLPRPRPRPYHEPRP | -0.342
RRIRNRPPRLPRPRPRPYHFPRP | -0.309
RRIRNRPPRLPRPRPRPYHTPRP | -0.0317
RRIRNRPPRLPRPRPRPYHYPRP | -0.722
RRIRNRPPRLPRPRPRPYKAPRP | -0.388
RRIRNRPPRLPRPRPRPYKMPRP | -0.0115
RRIRNRPPRLPRPRPRPYLAPRP | -0.327
RRIRNRPPRLPRPRPRPYMNPRP | -0.207
RRIRNRPPRLPRPRPRPYMQPRP | -0.315
RRIRNRPPRLPRPRPRPYMVPRP | -0.107
RRIRNRPPRLPRPRPRPYNPPRP | -0.299
RRIRNRPPRLPRPRPRPYPFPRP | 0.0247
RRIRNRPPRLPRPRPRPYQCPRP | -0.00804
RRIRNRPPRLPRPRPRPYRFPRP | -0.00669
RRIRNRPPRLPRPRPRPYSDPRP | -0.031
RRIRNRPPRLPRPRPRPYVEPRP | -0.00677
RRIRNRPPRLPRPRPRPYVMPRP | -1.01
RRIRNRPPRLPRPRPRPYWMPRP | -0.26
RRIRNRPPRLPRPRPRPYYAPRP | -0.0919
RRIRNRPPRLPRPRPRPYYIPRP | -0.131
RRIRNRPPRLPRPRPRPYYSPRP | -0.541
RRIRPRPPRLPRPRPRPAAKPRP | 0.435
RRIRPRPPRLPRPRPRPACEPRP | 0.0148
